In article PMC8666976:
Where two headings read alike, the source gives them in different places.

Columns and labels:
human C3b (human) [1] = biological target: human C3b (human) (UniProt P01024); assay: ELISA; plates coated with human C3b at 15 nM overnight at 4°C in 50 mM NaHCO3 buffer pH 9.6, blocked with 4% BSA in PBS-T; serially diluted FH CCP 15–20 or CCP 18–20 samples (concentrated supernatants) incubated 1 h at 37°C; bound FH detected with goat antiserum to human FH
human C3b (human) [2] = biological target: human C3b (human) (UniProt P01024); assay: as above; remark: listed apart in the source

UniProt P01024, sequence (P01024 749-1663, chain 1 of 2): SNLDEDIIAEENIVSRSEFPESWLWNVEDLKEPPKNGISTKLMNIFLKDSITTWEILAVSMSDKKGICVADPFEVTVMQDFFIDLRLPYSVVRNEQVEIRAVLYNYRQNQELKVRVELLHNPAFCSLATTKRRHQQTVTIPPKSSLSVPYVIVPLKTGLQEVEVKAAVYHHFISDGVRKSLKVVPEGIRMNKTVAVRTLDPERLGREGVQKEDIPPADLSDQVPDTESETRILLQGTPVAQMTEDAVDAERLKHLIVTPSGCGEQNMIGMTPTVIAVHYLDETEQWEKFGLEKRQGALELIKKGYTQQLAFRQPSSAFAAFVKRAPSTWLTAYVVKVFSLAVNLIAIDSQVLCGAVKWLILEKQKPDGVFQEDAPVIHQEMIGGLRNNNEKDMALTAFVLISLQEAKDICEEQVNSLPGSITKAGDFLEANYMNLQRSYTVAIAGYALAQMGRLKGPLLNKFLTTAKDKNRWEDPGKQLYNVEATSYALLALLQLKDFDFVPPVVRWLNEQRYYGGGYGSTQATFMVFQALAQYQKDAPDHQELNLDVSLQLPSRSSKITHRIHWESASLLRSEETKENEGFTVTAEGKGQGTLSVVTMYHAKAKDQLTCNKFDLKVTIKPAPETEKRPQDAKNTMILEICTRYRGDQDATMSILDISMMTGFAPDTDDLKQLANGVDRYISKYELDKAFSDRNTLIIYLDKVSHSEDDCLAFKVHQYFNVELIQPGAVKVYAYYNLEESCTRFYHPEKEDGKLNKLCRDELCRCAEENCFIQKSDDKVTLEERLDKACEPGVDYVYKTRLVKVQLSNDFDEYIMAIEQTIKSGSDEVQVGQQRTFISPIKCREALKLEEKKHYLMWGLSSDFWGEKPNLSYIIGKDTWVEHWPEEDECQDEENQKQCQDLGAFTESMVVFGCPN
UniProt P01024, sequence (P01024 749-1663, chain 2 of 2): as the sequence (P01024 749-1663, chain 1 of 2) above

Substance “Factor H CCP 15–20 fragment, variant T956M (domain or fragment)” has a percent decrease in C3b binding compared to WT (human C3b (human) [1]) of 30% and a percent decrease in C3b binding compared to WT (human C3b (human) [2]) of 35%.
